Experimental data reported in patent publication US20140134647A1 (LA JOLLA INSTITUTE FOR ALLERGY AND IMMUNOLOGY, published 2014).
Several values for one entry are separate records, joined by “and”; a condition that tells them apart may be missing. Equal values may be shown once. Read-outs that look alike come from different tables or passages of the source.

Key:
[1] = molecular target: TRAIL-R2-Fc double mutant L110A/L114A (human) (UniProt O14763); assay: SPR; TRAIL-R2-Fc mutant captured on anti-human Fc chip, UL141 analyte
TRAIL-R2-Fc double mutant L110A/L114A (human), sequence (O14763 other isoform, or with tags, fused parts or gaps L110A L114A L110A L114A limits assumed): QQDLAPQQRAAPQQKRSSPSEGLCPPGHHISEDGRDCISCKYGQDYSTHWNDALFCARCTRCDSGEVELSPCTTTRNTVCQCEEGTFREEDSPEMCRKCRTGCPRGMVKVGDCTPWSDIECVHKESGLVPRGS

[2] = molecular target: TRAIL-R2-Fc mutant K155A (human) (UniProt O14763); assay: as above
TRAIL-R2-Fc mutant K155A (human), sequence (O14763 other isoform, or with tags, fused parts or gaps K155A K155A limits assumed): as the sequence (O14763 other isoform, or with tags, fused parts or gaps L110A L114A L110A L114A limits assumed) above, with A53L, A57L, K98A counted along it

[3] = molecular target: TRAIL-R2-Fc mutant D148A (human) (UniProt O14763); assay: as above
TRAIL-R2-Fc mutant D148A (human), sequence (O14763 other isoform, or with tags, fused parts or gaps D148A D148A limits assumed): as the sequence (O14763 other isoform, or with tags, fused parts or gaps L110A L114A L110A L114A limits assumed) above, with A53L, A57L, D91A counted along it

[4] = molecular target: TRAIL-R2-Fc mutant R154A (human) (UniProt O14763); assay: as above
TRAIL-R2-Fc mutant R154A (human), sequence (O14763 other isoform, or with tags, fused parts or gaps R154A R154A limits assumed): as the sequence (O14763 other isoform, or with tags, fused parts or gaps L110A L114A L110A L114A limits assumed) above, with A53L, A57L, R97A counted along it

[5] = molecular target: TRAIL-R2-Fc mutant V167A (human) (UniProt O14763); assay: as above
TRAIL-R2-Fc mutant V167A (human), sequence (O14763 other isoform, or with tags, fused parts or gaps V167A V167A limits assumed): as the sequence (O14763 other isoform, or with tags, fused parts or gaps L110A L114A L110A L114A limits assumed) above, with A53L, A57L, V110A counted along it

[6] = molecular target: TRAIL-R2-Fc mutant F112A (human) (UniProt O14763); assay: as above
TRAIL-R2-Fc mutant F112A (human), sequence (O14763 other isoform, or with tags, fused parts or gaps F112A F112A limits assumed): as the sequence (O14763 other isoform, or with tags, fused parts or gaps L110A L114A L110A L114A limits assumed) above, with A53L, F55A, A57L counted along it

[7] = molecular target: TRAIL-R2-Fc double mutant E78A/D109A (human) (UniProt O14763); assay: as above
TRAIL-R2-Fc double mutant E78A/D109A (human), sequence (O14763 other isoform, or with tags, fused parts or gaps E78A D109A E78A D109A limits assumed): as the sequence (O14763 other isoform, or with tags, fused parts or gaps L110A L114A L110A L114A limits assumed) above, with E21A, D52A, A53L, A57L counted along it

[8] = molecular target: TRAIL-R2-Fc mutant P150A (human) (UniProt O14763); assay: as above
TRAIL-R2-Fc mutant P150A (human), sequence (O14763 other isoform, or with tags, fused parts or gaps P150A P150A limits assumed): as the sequence (O14763 other isoform, or with tags, fused parts or gaps L110A L114A L110A L114A limits assumed) above, with A53L, A57L, P93A counted along it

[9] = molecular target: TRAIL-R2-Fc triple mutant M152A/R154A/K155A (human) (UniProt O14763); assay: as above
TRAIL-R2-Fc triple mutant M152A/R154A/K155A (human), sequence (O14763 other isoform, or with tags, fused parts or gaps M152A R154A K155A M152A R154A K155A limits assumed): as the sequence (O14763 other isoform, or with tags, fused parts or gaps L110A L114A L110A L114A limits assumed) above, with A53L, A57L, M95A, R97A, K98A counted along it

[10] = molecular target: TRAIL-R2-Fc mutant M152A (human) (UniProt O14763); assay: as above
TRAIL-R2-Fc mutant M152A (human), sequence (O14763 other isoform, or with tags, fused parts or gaps M152A M152A limits assumed): as the sequence (O14763 other isoform, or with tags, fused parts or gaps L110A L114A L110A L114A limits assumed) above, with A53L, A57L, M95A counted along it

[11] = molecular target: TRAIL-R2-Fc double mutant L110A/L114A (human) (UniProt O14763); assay: SPR, alanine mutant
[12] = molecular target: TRAIL-R1-Fc (human TRAIL-R1/DR4 ectodomain Fc fusion) (human) (UniProt O00220); assay: SPR, average of KDeq and KD (KDave); TRAIL-R1-Fc immobilized, UL141 analyte
TRAIL-R1-Fc (human TRAIL-R1/DR4 ectodomain Fc fusion) (human), sequence (O00220 24-239): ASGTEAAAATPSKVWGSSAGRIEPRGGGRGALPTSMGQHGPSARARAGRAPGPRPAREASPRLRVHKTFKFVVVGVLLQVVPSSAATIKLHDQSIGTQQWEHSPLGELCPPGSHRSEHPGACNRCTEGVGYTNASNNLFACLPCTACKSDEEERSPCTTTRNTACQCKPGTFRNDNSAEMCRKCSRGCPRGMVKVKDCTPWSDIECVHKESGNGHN

[13] = molecular target: TRAIL-R1-Fc (human TRAIL-R1/DR4 ectodomain Fc fusion) (human) (UniProt O00220); assay: SPR, steady-state (KDeq); TRAIL-R1-Fc immobilized, UL141 analyte
[14] = molecular target: TRAIL-R2-Fc (human TRAIL-R2 aa 58-184, thrombin site, Fc of human IgG1), wild type (human) (UniProt O14763); assay: SPR, KDave; TRAIL-R2-Fc immobilized, UL141 analyte
TRAIL-R2-Fc (human TRAIL-R2 aa 58-184, thrombin site, Fc of human IgG1), wild type (human), sequence (O14763 other isoform, or with tags, fused parts or gaps limits assumed): as the sequence (O14763 other isoform, or with tags, fused parts or gaps L110A L114A L110A L114A limits assumed) above, with A53L, A57L counted along it

[15] = molecular target: TRAIL-R2-Fc (human TRAIL-R2 aa 58-184, thrombin site, Fc of human IgG1), wild type (human) (UniProt O14763); assay: SPR; TRAIL-R2-Fc immobilized, UL141 analyte
[16] = molecular target: TRAIL-R2-Fc double mutant L110A/L114A (human) (UniProt O14763)
[17] = molecular target: TRAIL-R2-Fc mutant D148A (human) (UniProt O14763)
[18] = molecular target: TRAIL-R2-Fc mutant V167A (human) (UniProt O14763)
[19] = molecular target: TRAIL-R2-Fc mutant F112A (human) (UniProt O14763)
[20] = molecular target: TRAIL-R2-Fc (human TRAIL-R2 aa 58-184, thrombin site, Fc of human IgG1), wild type (human) (UniProt O14763); assay: SPR, kinetic 1:1 fit; TRAIL-R2-Fc immobilized, UL141 analyte
[21] = molecular target: TRAIL-R1-Fc (human TRAIL-R1/DR4 ectodomain Fc fusion) (human) (UniProt O00220); assay: SPR, kinetic 1:1 fit; TRAIL-R1-Fc immobilized, UL141 analyte
[22] = molecular target: CD155-Fc (CD155/PVR ectodomain Fc fusion) (human) (UniProt P15151); assay: SPR, KDave; CD155-Fc immobilized, UL141 analyte
CD155-Fc (CD155/PVR ectodomain Fc fusion) (human), sequence (P15151 21-343 limits assumed): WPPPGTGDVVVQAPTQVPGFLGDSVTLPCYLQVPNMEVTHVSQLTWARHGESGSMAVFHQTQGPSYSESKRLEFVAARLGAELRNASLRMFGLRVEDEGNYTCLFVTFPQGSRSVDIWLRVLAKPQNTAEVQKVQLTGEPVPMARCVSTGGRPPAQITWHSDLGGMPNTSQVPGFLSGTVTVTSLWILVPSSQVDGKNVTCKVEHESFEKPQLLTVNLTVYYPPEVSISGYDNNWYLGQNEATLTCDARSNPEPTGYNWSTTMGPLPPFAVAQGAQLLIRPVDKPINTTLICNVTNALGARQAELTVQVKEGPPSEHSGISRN

[23] = molecular target: TRAIL-R1-Fc (human TRAIL-R1/DR4 ectodomain Fc fusion) (human) (UniProt O00220); assay: SPR; TRAIL-R1-Fc immobilized, UL141 analyte
[24] = molecular target: CD155-Fc (CD155/PVR ectodomain Fc fusion) (human) (UniProt P15151); assay: SPR, kinetic 1:1 fit; CD155-Fc immobilized, UL141 analyte
[25] = molecular target: TRAIL-R2-Fc (human TRAIL-R2 aa 58-184, thrombin site, Fc of human IgG1), wild type (human) (UniProt O14763); assay: SPR; TRAIL-R2-Fc captured on anti-human Fc chip, UL141 analyte
[26] = molecular target: CD155-Fc (CD155/PVR ectodomain Fc fusion) (human) (UniProt P15151); assay: SPR; CD155-Fc immobilized, UL141 analyte
[27] = molecular target: CD155-Fc (CD155/PVR ectodomain Fc fusion) (human) (UniProt P15151); assay: SPR, KDave; CD155-Fc immobilized, pre-formed UL141-TRAIL-R2 complex analyte
[28] = molecular target: CD155-Fc (CD155/PVR ectodomain Fc fusion) (human) (UniProt P15151); assay: SPR; CD155-Fc immobilized, pre-formed UL141-TRAIL-R2 complex analyte
[29] = molecular target: CD155-Fc (CD155/PVR ectodomain Fc fusion) (human) (UniProt P15151)
[30] = molecular target: T1, TRAIL-R2 (DR5) ectodomain monomer, aa 58-184, without Fc (human, UniProt O14763 58-184); assay: SPR, steady-state (KDeq); UL141-Fc immobilized, TRAIL-R2 analyte
T1 construct: range 58-184; also called monomeric TRAIL-R2; TRAIL-R2 monomer
T1 sequence (O14763 58-184 limits assumed): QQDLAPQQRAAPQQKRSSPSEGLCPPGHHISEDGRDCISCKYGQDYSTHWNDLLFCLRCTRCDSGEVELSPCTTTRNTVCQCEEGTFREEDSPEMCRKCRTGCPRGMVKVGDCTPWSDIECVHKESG

[31] = molecular target: T1, TRAIL-R2 (DR5) ectodomain monomer, aa …; assay: SPR, average of KDeq and KD (KDave); UL141-Fc immobilized, TRAIL-R2 analyte
[32] = molecular target: T1, TRAIL-R2 (DR5) ectodomain monomer, aa …; assay: SPR; UL141-Fc immobilized, TRAIL-R2 analyte
[33] = molecular target: T1, TRAIL-R2 (DR5) ectodomain monomer, aa …; assay: SPR, kinetic 1:1 fit; UL141-Fc immobilized, TRAIL-R2 analyte
[34] = molecular target: T2, mouse TRAIL-R2:Fc (extracellular domain of mouse TRAIL-R2 fused to human IgG constant domain) (mouse; human, UniProt Q9QZM4 53-180; P01857 104-330 = IgG part); assay: ELISA-based assay
T2 construct: extracellular domain;domain: human IgG VH constant domain; also called mTRAIL-R2:Fc
T2 sequence (Q9QZM4 other isoform, or with tags, fused parts or gaps limits assumed): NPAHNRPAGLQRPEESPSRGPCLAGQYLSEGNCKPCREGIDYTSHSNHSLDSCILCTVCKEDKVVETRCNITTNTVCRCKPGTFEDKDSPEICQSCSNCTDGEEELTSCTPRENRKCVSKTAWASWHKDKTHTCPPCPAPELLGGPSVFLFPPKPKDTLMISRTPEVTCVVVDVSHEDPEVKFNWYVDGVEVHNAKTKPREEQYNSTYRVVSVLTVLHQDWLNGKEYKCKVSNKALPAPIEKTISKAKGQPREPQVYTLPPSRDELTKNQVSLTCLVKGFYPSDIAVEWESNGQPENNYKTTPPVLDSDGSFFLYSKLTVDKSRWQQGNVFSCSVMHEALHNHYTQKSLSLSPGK

“UL141 ectodomain (HCMV FIX strain) with C-terminal poly-histidine tag (ligand)” showed a Kd [1] of 42.7 nM, a fold lower binding than wild-type [1] of 10 fold and a koff [1] of 0.00064 s⁻¹. For the same molecule, the kon [1] was 15000 M⁻¹ s⁻¹, the Kd [2] was 7.74 nM and the koff [2] was 0.00038 s⁻¹. For the same molecule, the kon [2] was 49100 M⁻¹ s⁻¹, the Kd [3] was 55.3 nM and the fold lower binding than wild-type [3] was 10 fold. It also gave a koff [3] of 0.0013 s⁻¹, a kon [3] of 23500 M⁻¹ s⁻¹ and a Kd [4] of 6.26 nM. The koff [4] was 0.000243 s⁻¹, the kon [4] was 38800 M⁻¹ s⁻¹ and the Kd [5] was 15.5 nM. For the same molecule, the fold lower binding than wild-type [5] was 2.5 fold, the koff [5] was 0.00048 s⁻¹ and the kon [5] was 31000 M⁻¹ s⁻¹. For the same molecule, the Kd [6] was 630 nM, the fold lower binding than wild-type [6] was 100 fold and the koff [6] was 0.00566 s⁻¹. The kon [6] was 8980 M⁻¹ s⁻¹, the Kd [7] was 60.4 nM and the fold lower binding than wild-type [7] was 10 fold. The koff [7] was 0.00151 s⁻¹, the kon [7] was 25000 M⁻¹ s⁻¹ and the Kd [8] was 8.32 nM. For the same molecule, the koff [8] was 0.000391 s⁻¹, the kon [8] was 47000 M⁻¹ s⁻¹ and the Kd [9] was 7.39 nM. For the same molecule, the koff [9] was 0.00027 s⁻¹, the kon [9] was 36500 M⁻¹ s⁻¹ and the Kd [10] was 7.49 nM. The koff [10] was 0.000382 s⁻¹, the kon [10] was 51000 M⁻¹ s⁻¹ and the fold decrease in binding affinity against wild-type [11] was 7 fold. For the same molecule, the Kd [12] was 2300 nM, the Kd [13] was 2.27 nM and the Kd [14] was 6 nM. It also gave a koff [15] of 7.21e-05 s⁻¹, a kon [15] of 12100 M⁻¹ s⁻¹ and a x-fold reduction in binding compared to wild type [16] of 7.2 fold. The x-fold reduction in binding compared to wild type [17] was 9.2 fold, the x-fold reduction in binding compared to wild type [18] was 2.6 fold and the x-fold reduction in binding compared to wild type [19] was 106 fold. It also gave a Kd [20] of 5.96 nM, a Kd [21] of 2330 nM and a Kd [22] of 2 nM. The koff [23] was 0.014 s⁻¹, the kon [23] was 6020 M⁻¹ s⁻¹ and the Kd [24] was 1.97 nM. The Kd [25] was 6 nM and 5.95 nM, the koff [25] was 7.21e-05 s⁻¹ and the kon [25] was 12100 M⁻¹ s⁻¹. It also gave a koff [26] of 0.000346 s⁻¹ and a kon [26] of 176000 M⁻¹ s⁻¹.

In the case of “pre-formed UL141-TRAIL-R2 protein complex (from UniProt O14763 58-184)”, the Kd [27] is reported as 2 nM, the koff [28] is reported as 0.000333 s⁻¹ and the kon [28] is reported as 152000 M⁻¹ s⁻¹. It also gave a Kd [29] of 2.19 nM.

B1: UL141-Fc (UL141 ectodomain fused to the Fc region of human IgG1) (Fc fusion)
chain: DIAEKMWAENYETTSPAPVLVAEGEQVTIPCTVMTHSWPMVSIRARFCRSHDGSDELILDAVKGHRLMNGLQYRLPYATWNFSQLHLGQIFSLTFNVSTDTAGMYECVLRNYSHGLIMQRFVILTQLETLSRPDEPCCTPALGRYSLGDQIWSPTPWRLRNHDCGMYRGFQRNYFYIGRADAEDCWKPACPDEEPDRCWTVIQRYRLPGDCYRSQPHPPKFLPVTPAPPADIDTGMS
For B1, the Kd [30] was 19.8 nM, the Kd [31] was 20 nM and the koff [32] was 0.00564 s⁻¹. For the same molecule, the kon [32] was 264000 M⁻¹ s⁻¹, the Kd [33] was 21.4 nM and the binding result [34] was “no binding”.
